Laboratory results reported in patent US20200369737A1 (published 2020).

Legend:
Assay in all cases: sandwich ELISA; receptor ECD/Fc chimera captured on anti-Fc plates, biotin-labeled ligand titrated, streptavidin-HRP detection
[1] = molecular target: T1, recombinant human HER4/Fc chimera (receptor extracellular domain/Fc chimera) (human, UniProt Q15303 26-651)
T1 construct: extracellular domain; Bought from R&D Systems; Captured on plates coated with anti-Fc antibody; not shown: Fc part (and any linker) of the purchased R&D Systems chimera
T1 sequence (looked up): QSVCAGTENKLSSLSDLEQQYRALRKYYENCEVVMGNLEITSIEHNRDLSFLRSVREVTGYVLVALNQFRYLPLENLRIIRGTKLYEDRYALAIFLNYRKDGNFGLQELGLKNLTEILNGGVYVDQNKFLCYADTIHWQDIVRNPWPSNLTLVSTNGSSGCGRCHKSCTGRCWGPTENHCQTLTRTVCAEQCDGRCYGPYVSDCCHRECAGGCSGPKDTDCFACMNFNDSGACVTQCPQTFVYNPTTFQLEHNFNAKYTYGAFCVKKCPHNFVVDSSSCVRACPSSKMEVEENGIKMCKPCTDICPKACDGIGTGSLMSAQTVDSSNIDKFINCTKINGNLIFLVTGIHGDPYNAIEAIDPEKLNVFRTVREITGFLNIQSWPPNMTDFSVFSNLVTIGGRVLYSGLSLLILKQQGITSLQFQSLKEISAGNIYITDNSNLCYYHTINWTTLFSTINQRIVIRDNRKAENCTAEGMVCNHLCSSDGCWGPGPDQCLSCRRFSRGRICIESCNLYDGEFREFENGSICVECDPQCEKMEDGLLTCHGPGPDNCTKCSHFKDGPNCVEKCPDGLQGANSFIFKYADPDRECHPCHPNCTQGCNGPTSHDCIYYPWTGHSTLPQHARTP

[2] = molecular target: T2, recombinant human HER3/Fc chimera (receptor extracellular domain/Fc chimera) (human, UniProt P21860 20-643)
T2 construct: extracellular domain; Bought from R&D Systems; Captured on plates coated with anti-Fc antibody; not shown: Fc part (and any linker) of the purchased R&D Systems chimera

[3] = molecular target: T3, recombinant human EGFR/Fc chimera (receptor extracellular domain/Fc chimera) (human, UniProt P00533 25-645)
T3 construct: extracellular domain; Bought from R&D Systems; Captured on plates coated with anti-Fc antibody; also called HER/Fc chimera-EGFR; HER1; not shown: Fc part (and any linker) of the purchased R&D Systems chimera

T2 sequence (P21860 20-643, change not shown): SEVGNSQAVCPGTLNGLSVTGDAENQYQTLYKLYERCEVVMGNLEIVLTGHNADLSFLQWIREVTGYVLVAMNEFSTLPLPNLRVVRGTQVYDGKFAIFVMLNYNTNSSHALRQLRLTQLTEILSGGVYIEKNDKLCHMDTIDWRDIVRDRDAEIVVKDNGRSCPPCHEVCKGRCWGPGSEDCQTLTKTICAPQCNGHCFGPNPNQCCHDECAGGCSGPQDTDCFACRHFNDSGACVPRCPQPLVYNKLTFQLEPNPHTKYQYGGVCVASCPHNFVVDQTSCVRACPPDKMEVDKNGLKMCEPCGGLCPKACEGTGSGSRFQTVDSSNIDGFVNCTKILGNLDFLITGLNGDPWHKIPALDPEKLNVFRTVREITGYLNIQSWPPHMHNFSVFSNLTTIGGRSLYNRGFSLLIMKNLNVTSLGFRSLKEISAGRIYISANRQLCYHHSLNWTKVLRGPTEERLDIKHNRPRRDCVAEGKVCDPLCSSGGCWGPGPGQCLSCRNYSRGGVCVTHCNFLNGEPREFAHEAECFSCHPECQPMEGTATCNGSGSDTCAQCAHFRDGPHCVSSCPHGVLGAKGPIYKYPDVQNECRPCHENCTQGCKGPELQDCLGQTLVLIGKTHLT

B1: Pan-HER DNL B5-3M2 tagged with biotin (ligand)
chain: NSDSECPLSHDGYCLNDGVCMYTEAKDEYACNCVVGYIGERCQYYDLL
modifications: not fully specified; biotin label; paragraph 113 says derivatized at the N-terminus; paragraph 97 says B5-3M2 has two sites for biotinylation, the N terminus and K26
notes: Made in E. coli; also called tagged (biotinylated) DNL; EGF1-48 H16N, I23T, L26K, K28E, R45Y, K48L
B1 was tested, and the Kd [1] was 4 nM, the Kd [2] was 6 nM and the Kd [3] was 5 nM.
